Results: paper PMC7266993 (2020)

B1: FLAG epitope-tagged STAG1, wild type (transient, HEK293) [human] / RAD21 (endogenous, HEK293) [human (endogenous in HEK293)] (parent complex)
chain 1: MITSELPVLQDSTNETTAHSDAGSELEETEVKGKRKRGRPGRPPSTNKKPRKSPGEKSRIEAGIRGAGRGRANGHPQQNGEGEPVTLFEVVKLGKSAMQSVVDDWIESYKQDRDIALLDLINFFIQCSGCRGTVRIEMFRNMQNAEIIRKMTEEFDEDSGDYPLTMPGPQWKKFRSNFCEFIGVLIRQCQYSIIYDEYMMDTVISLLTGLSDSQVRAFRHTSTLAAMKLMTALVNVALNLSIHQDNTQRQYEAERNKMIGKRANERLELLLQKRKELQENQDEIENMMNSIFKGIFVHRYRDAIAEIRAICIEEIGVWMKMYSDAFLNDSYLKYVGWTLHDRQGEVRLKCLKALQSLYTNRELFPKLELFTNRFKDRIVSMTLDKEYDVAVEAIRLVTLILHGSEEALSNEDCENVYHLVYSAHRPVAVAAGEFLHKKLFSRHDPQAEEALAKRRGRNSPNGNLIRMLVLFFLESELHEHAAYLVDSLWESSQELLKDWECMTELLLEEPVQGEEAMSDRQESALIELMVCTIRQAAEAHPPVGRGTGKRVLTAKERKTQIDDRNKLTEHFIITLPMLLSKYSADAEKVANLLQIPQYFDLEIYSTGRMEKHLDALLKQIKFVVEKHVESDVLEACSKTYSILCSEEYTIQNRVDIARSQLIDEFVDRFNHSVEDLLQEGEEADDDDIYNVLSTLKRLTSFHNAHDLTKWDLFGNCYRLLKTGIEHGAMPEQIVVQALQCSHYSILWQLVKITDGSPSKEDLLVLRKTVKSFLAVCQQCLSNVNTPVKEQAFMLLCDLLMIFSHQLMTGGREGLQPLVFNPDTGLQSELLSFVMDHVFIDQDEENQSMEGDEEDEANKIEALHKRRNLLAAFSKLIIYDIVDMHAAADIFKHYMKYYNDYGDIIKETLSKTRQIDKIQCAKTLILSLQQLFNELVQEQGPNLDRTSAHVSGIKELARRFALTFGLDQIKTREAVATLHKDGIEFAFKYQNQKGQEYPPPNLAFLEVLSEFSSKLLRQDKKTVHSYLEKFLTEQMMERREDVWLPLISYRNSLVTGGEDDRMSVNSGSSSSKTSSVRNKKGRPPLHKKRVEDESLDNTWLNRTDTMIQTPGPLPAPQLTSTVLRENSRPMGDQIQEPESEHGSEPDFLHNPQMQISWLGQPKLEDLNRKDRTGMNYMKVRTGVRHAVRGLMEEDAEPIFEDVMMSSRSQLEDMNEEFEDTMVIDLPPSRNRRERAELRPDFFDSAAIIEDDSGFGMPMF
chain 2: MFYAHFVLSKRGPLAKIWLAAHWDKKLTKAHVFECNLESSVESIISPKVKMALRTSGHLLLGVVRIYHRKAKYLLADCNEAFIKIKMAFRPGVVDLPEENREAAYNAITLPEEFHDFDQPLPDLDDIDVAQQFSLNQSRVEEITMREEVGNISILQENDFGDFGMDDREIMREGSAFEDDDMLVSTTTSNLLLESEQSTSNLNEKINHLEYEDQYKDDNFGEGNDGGILDDKLISNNDGGIFDDPPALSEAGVMLPEQPAHDDMDEDDNVSMGGPDSPDSVDPVEPMPTMTDQTTLVPNEEEAFALEPIDITVKETKAKRKRKLIVDSVKELDSKTIRAQLSDYSDIVTTLDLAPPTKKLMMWKETGGVEKLFSLPAQPLWNNRLLKLFTRCLTPLVPEDLRKRRKGGEADNLDEFLKEFENPEVPREDQQQQHQQRDVIDEPIIEEPSRLQESVMEASRTNIDESAMPPPPPQGVKRKAGQIDPEPVMPPQQVEQMEIPPVELPPEEPPNICQLIPELELLPEKEKEKEKEKEDDEEEEDEDASGGDQDQEERRWNKRTQQMLHGLQRALAKTGAESISLLELCRNTNRKQAAAKFYSFLVLKKQQAIELTQEEPYSDIIATPGPRFHII

Variants of: B1
Experiment: co-immunoprecipitation (anti-FLAG IP), capillary immunodetection assay; HEK293; read off a plot

Variant	ratio to parent
chain 1 D797K	~0.08
chain 1 D797A	~0.06
